The source of these data is PMC9278102.

As a reminder, the Kd is the concentration at which binding is half-saturated. The low end stands for higher affinity, the high end for lower affinity. As a reminder, the stoichiometry N is a count of units in the complex or per binding partner.

Test [1] has as its target hACE2-fc dimer (human) (UniProt Q9BYF1). Briefly: SPR. On the technique in general: In SPR one partner is held on a chip, and binding of the other changes the refractive index at the surface.
In test [2] the target is SARS-CoV-2 S1-S2-His-T4 trimer (SARS-CoV-2 (wt; Wuhan strain)). Briefly: SEC. (In general: SEC sorts molecules by how far they enter the pores of the column.)

Sequence of UniProt Q9BYF1 (Q9BYF1 18-740): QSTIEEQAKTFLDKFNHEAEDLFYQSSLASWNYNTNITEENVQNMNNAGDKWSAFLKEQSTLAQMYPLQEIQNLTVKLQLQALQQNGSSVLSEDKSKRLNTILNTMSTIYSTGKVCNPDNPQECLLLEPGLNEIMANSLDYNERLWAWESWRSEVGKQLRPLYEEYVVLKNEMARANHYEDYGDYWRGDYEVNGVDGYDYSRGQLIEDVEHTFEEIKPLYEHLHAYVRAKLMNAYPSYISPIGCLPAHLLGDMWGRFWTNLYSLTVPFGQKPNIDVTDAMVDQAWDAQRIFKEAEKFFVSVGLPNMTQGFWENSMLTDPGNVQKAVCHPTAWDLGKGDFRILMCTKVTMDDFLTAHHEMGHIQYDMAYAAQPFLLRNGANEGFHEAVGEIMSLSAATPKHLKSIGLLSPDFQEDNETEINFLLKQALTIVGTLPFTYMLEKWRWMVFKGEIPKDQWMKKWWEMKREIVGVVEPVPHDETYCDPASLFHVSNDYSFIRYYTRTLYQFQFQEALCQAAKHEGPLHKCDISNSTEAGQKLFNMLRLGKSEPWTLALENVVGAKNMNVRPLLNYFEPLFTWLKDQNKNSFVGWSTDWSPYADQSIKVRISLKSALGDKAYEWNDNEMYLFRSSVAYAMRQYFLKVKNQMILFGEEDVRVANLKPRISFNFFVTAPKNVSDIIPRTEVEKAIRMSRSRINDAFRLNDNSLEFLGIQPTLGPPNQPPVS

In test [1], “SARS-CoV-2 S1-S2-His-T4 trimer (domain or fragment)” showed a KD1 (two-state fit, primary binding) of 1.8 nM; a Kd of 0.04 nM; a ka1 (two-state fit, primary binding) of 780000 M⁻¹ s⁻¹; a ka2 (two-state fit, secondary transition) of 0.011 M⁻¹ s⁻¹. In test [1], the kd1 (two-state fit, primary binding) came to 0.0014 s⁻¹ and the kd2 (two-state fit, secondary transition) was 0.00024 s⁻¹. Moreover, in test [2], the stoichiometry N stood at 3.
